Assay results published in publication PMC7409549, “A time-resolved interaction analysis of Bem1 reconstructs the flow of Cdc42 during polar growth” (Life Science Alliance, 2020).

Molecular target: T1, 6xHIS-Nba1_(202-289)-SNAP (S. cerevisiae, UniProt Q08229 202-289)
T1 construct: Nba1, S. cerevisiae, residues 202-289; also called the PxxP site; source: E. coli BL21DE3, purified (HisTrap HP, size-exclusion chromatography); not shown: 6xHIS, N-terminal, kept; SNAP-tag, C-terminal, kept
T1 sequence (looked up): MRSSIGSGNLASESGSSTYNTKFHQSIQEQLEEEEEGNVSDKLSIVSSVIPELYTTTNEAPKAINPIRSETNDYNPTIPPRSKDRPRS
Assay: SPR; Biacore X100; GST-SH3 domains captured on an anti-GST antibody CM5 chip, free GST on the reference cell; 6xHis-Nba1_(202-289)-SNAP as analyte; HBSEP buffer (10 mM Hepes, 150 mM NaCl, 3 mM EDTA, 0.05% Tween 20, pH 7.4); equilibrium KD
Details: both partners purified

B1: GST-SH3_(Boi2) (domain or fragment, S. cerevisiae, UniProt P39969 43-107, looked up)
chain: GNFPMYIAINEYFKRMEDELDMKPGDKIKVITDDEEYKDGWYFGRNLRTNEEGLYPVVFTQKITV
notes: SH3 domain of Boi2, S. cerevisiae; source: E. coli BL21DE3, purified (GSTrap, Superdex 200); not shown: GST, N-terminal, kept
- Kd: 1970 nM

B2: GST-SH3_(Boi1) (domain or fragment, S. cerevisiae, UniProt P38041 13-77, looked up)
chain: KSFPLYIAVNQYSKRMEDELNMKPGDKIKVITDDGEYNDGWYYGRNLRTKEEGLYPAVFTKRIAI
notes: SH3 domain of Boi1, S. cerevisiae; also called GST fusion to SH3_(Boi1); source: E. coli BL21DE3, purified (GSTrap, Superdex 200) for SPR; coupled to glutathione beads from extract for the pull-down; not shown: GST, N-terminal, kept
- Kd: ~740 nM
